From publication PMC7078487

Molecular target: soluble FixL (FixL_(118–495), missing the transmembrane domain) (Caulobacter crescentus)

An accumulation of autophosphorylated FixL ([γ-32P]ATP, 30-minute time course; FixL 5 μM, FixJ(D55A) 20 μM, FixT 80 μM) of 3 fold was found for “Caulobacter crescentus FixT (natural protein)” in this work.
